According to patent US20010044102:

Test system: c-Myc (pM21 expression), P01106-1
Experiment: cell_activity
Settings: luciferase, NIH 3T3, SV40 minimal promoter

Chain of c-Myc (pM21 expression), P01106-1 (P01106 16-454): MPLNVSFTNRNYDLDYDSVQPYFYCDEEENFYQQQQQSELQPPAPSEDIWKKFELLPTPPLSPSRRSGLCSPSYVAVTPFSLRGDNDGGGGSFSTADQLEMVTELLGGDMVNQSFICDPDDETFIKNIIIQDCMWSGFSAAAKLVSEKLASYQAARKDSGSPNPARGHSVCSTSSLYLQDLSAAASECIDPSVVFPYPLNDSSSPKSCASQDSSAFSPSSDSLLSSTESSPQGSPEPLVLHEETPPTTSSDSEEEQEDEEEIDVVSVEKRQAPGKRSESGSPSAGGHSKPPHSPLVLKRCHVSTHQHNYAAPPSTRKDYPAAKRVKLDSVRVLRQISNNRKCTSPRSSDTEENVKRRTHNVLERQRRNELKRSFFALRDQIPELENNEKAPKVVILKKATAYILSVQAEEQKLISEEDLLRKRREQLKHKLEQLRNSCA

## cdc25A 2.5 kb KpnI/HindIII fragment (MB2+MB3) luciferase reporter
  activity: 5 fold
